Experimental data taken from patent publication US20160200831A1 (Sanofi, published 2016).
Numbering of substitutions follows the chain as printed. Read-outs that look alike come from different tables or passages of the source. One block for each binder: values may come before it.

What was measured:
[1] = biological target: T1, glycosylated human PAI-1 (active form) (human, UniProt P05121 24-402, glycosylated); experiment: cell-based or functional assay
[2] = biological target: T1, glycosylated human PAI-1 (active form); experiment: cell-based or functional assay; remark: listed apart in the source
human PAI-1 [3] = biological target: T2, human PAI-1 (human, UniProt P05121 24-402); experiment: Biacore, hybridoma supernatant
T2 construct: also used for endogenous PAI-1 of human plasma, liver lysate and lung fibroblasts; also called hPAI-1; hPAI

cynomolgus PAI-1 [4] = biological target: T3, cynomolgus PAI-1 (cynomolgus monkey (Macaca fascicularis), UniProt P05121 24-402 (human entry)); experiment: Biacore, hybridoma supernatant
T3 construct: produced in-house in E. coli (non-glycosylated); active cyno PAI-1 in the assays; also called cyno PAI-1; cPAI-1

[5] = biological target: T1, glycosylated human PAI-1 (active form); experiment: Biacore (summary table)
Method: (§1) In kinetics measurement, the antibodies were evaluated in reverse at 25° C. In the reverse assay, PAI-1 antibodies were captured to the anti-mouse IgG Fc antibody surface prepared on CM5 chip followed by injecting the serial 2× dilutions of PAI-1 proteins (human or cyno) starting at 40 nM. A high flow rate was chosen at 50 ul/min to avoid mass transportation limitation. Two thousand seconds was allowed for dissociation time to accommodate for the slow off rate of the selected antibodies. The chip was regenerated by glycine-HCl, pH 1.7 buffer after each round of antibody-PAI-1 binding. Kinetics data analysis was performed using Biacore BIAevaluation software. The sensorgrams were double-referenced by subtracting the reference flow cell values and the blank buffer values. The sensorgrams were fitted by using the simulated kinetics 1:1 (Langmuir) model with local Rmax.

human PAI-1 [6] = biological target: T2, human PAI-1; experiment: Biacore reverse assay, mAb captured by anti-mouse IgG Fc, 25 C
Method: as §1

human PAI-1 [7] = biological target: T2, human PAI-1; experiment: cell-based or functional assay
[8] = biological target: T1, glycosylated human PAI-1 (active form); experiment: cell-based or functional assay; remark: listed apart in the source
[9] = biological target: T1, glycosylated human PAI-1 (active form); experiment: cell-based or functional assay; remark: listed apart in the source
human PAI-1 [10] = biological target: T2, human PAI-1; experiment: cell-based or functional assay; remark: listed apart in the source
cynomolgus PAI-1 [11] = biological target: T3, cynomolgus PAI-1; experiment: cell-based or functional assay
[12] = biological target: T4, cyno PAI-1 captured on immobilized human vitronectin (cynomolgus monkey; human, UniProt P04004 20-478, limits assumed); experiment: Biacore, cPAI-1 on vitronectin chip, 1:1 model
T4 construct: non-covalent complex formed on the chip; also called cPAI-1/Vn

[13] = biological target: T5, human PAI-1 captured on immobilized human vitronectin (human, UniProt P04004 20-478); experiment: Biacore, hPAI-1 on vitronectin chip, 1:1 model
T5 construct: non-covalent complex formed on the chip or plate; also called PAI-1/Vn complex; Vn captured hPAI-1

cynomolgus PAI-1 [14] = biological target: T3, cynomolgus PAI-1; experiment: Biacore reverse assay, mAb captured by anti-mouse IgG Fc, 25 C
Method: as §1

[15] = biological target: T5, human PAI-1 captured on immobilized …; experiment: Biacore forward assay, hPAI-1 captured on immobilized vitronectin
Method: Binding kinetics of representative antibodies were further analyzed and compared in Biacore forward assay with vitronectin and PAI-1 complex. In the forward assay, human vitronectin protein was immobilized onto the CM5 chip in flow cells Fc1-Fc4 by amine coupling. Human PAI-1 was then captured to the vitronectin surface in flow cells Fc2-Fe4 as ligand. Fc1 was reserved as reference cell. The antibodies were diluted 2× starting from 40 nM and injected to Fc1-4. Kinetics data analysis was performed using Biacore BIAevaluation software. The sensorgrams were first double-referenced by subtracting the reference cell values and the blank buffer values, and then fitted by 1:1 (Langmuir) model was used with global Rmax.

T3 sequence (P05121 other isoform, or with tags, fused parts or gaps limits assumed): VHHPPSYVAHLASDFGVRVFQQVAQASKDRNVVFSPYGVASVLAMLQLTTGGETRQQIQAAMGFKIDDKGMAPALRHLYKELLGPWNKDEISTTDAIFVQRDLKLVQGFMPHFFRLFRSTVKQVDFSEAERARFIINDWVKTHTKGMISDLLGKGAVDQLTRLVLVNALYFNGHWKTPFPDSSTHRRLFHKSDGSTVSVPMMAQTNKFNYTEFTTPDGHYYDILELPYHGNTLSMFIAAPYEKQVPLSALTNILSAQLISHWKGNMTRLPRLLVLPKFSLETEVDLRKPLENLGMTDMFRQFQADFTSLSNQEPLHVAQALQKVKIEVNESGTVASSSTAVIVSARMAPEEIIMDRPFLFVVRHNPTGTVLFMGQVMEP
T4 sequence (chain, as listed by the source limits assumed, chain 1 of 2): as the sequence (P05121 other isoform, or with tags, fused parts or gaps limits assumed) above
T4 sequence (P04004 20-478 limits assumed, chain 2 of 2): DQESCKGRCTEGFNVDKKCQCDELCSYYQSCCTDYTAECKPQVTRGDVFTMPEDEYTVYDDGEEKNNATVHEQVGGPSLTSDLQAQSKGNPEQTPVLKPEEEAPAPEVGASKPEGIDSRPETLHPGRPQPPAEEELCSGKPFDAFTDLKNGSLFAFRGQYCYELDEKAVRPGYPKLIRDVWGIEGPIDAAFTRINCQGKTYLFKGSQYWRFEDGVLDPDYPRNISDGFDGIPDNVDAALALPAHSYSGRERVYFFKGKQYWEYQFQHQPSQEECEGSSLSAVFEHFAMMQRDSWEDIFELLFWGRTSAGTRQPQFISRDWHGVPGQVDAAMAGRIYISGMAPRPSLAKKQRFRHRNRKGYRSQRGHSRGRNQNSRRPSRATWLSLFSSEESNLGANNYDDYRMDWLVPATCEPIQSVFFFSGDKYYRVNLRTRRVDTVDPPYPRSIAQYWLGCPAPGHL
T5 sequence (chain, as listed by the source limits assumed, chain 1 of 2): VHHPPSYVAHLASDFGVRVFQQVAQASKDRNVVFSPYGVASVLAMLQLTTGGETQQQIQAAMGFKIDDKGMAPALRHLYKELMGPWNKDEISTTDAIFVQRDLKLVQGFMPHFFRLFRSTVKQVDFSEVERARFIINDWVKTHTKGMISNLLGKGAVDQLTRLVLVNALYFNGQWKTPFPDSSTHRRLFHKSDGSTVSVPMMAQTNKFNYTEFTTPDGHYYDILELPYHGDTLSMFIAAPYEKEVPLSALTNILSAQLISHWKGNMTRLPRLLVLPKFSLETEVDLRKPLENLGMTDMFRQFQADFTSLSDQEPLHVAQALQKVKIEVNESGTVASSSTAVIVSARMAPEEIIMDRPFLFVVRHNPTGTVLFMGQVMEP
T5 sequence (P04004 20-478 limits assumed, chain 2 of 2): as the sequence (P04004 20-478 limits assumed, chain 2 of 2) above

plasmin generation, hepatic stellate cells, IC50abs [1]: 8610 pM | plasmin generation, hepatic stellate cells, Imax [1]: 90% | Chromogenic Assays [2]: ~4 nM | Plasmin Generation [2]: 8.61 nM | koff (human PAI-1 [3]): ≤ 0.0001 s⁻¹ | binding result (cynomolgus PAI-1 [4]): binds
B1: A71 (antibody, mouse IgG1, V domains shown)
VH: QVQLQQSGAELMKPGASVKISCKATGFTFSTYWIEWIKQRPGHGLDWIGEILPGSGNTNYNEKFKGKATFTADTSSNTVYMQLSSLTSEDSAVYYCARGGLYYNLDSWGQGTTLTVSS
VL: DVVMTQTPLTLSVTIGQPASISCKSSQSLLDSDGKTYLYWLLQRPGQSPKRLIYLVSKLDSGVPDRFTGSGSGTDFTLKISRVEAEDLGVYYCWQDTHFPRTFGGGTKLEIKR
notes: mouse IgG1/kappa; also called mA71; A71 (IgG1/k)

plasmin generation, hepatic stellate cells, IC50abs [1]: 27000 pM | plasmin generation, hepatic stellate cells, Imax [1]: 88% | Chromogenic Assays [2]: 7 nM | Plasmin Generation [2]: 27 nM | Kd [5]: 42 pM | koff (human PAI-1 [3]): ≤ 0.0001 s⁻¹ | binding result (cynomolgus PAI-1 [4]): binds | Kd (human PAI-1 [6]): 42.3 pM | koff (human PAI-1 [6]): 0.000164 s⁻¹
B2: A105 (antibody, mouse IgG1, V domains shown)
VH: B1 VH with T31I, I37V, H43L, D46E, N57S, V79A, Y80F, N104D, S107Y, T113I
VL: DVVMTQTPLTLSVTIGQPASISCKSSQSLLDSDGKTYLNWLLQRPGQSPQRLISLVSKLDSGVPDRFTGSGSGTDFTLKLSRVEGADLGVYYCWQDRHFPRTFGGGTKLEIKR
notes: mouse IgG1/kappa; also called mA105; A105 (IgG1/k)

plasmin generation, hepatic stellate cells, IC50abs [1]: 3320 pM | plasmin generation, hepatic stellate cells, Imax [1]: 97% | Plasmin Generation [2]: 3.32 nM | Chromogenic Assay IC50 (human PAI-1 [7]): 440 pM | Plasminogen Activation IC50 [8]: 3170 pM | Plasminogen Activation Y50% [8]: 46% | Plasminogen Activation IC50 [9]: 3130 pM | Plasminogen Activation Y50% [9]: 79.8% | Kd [5]: 0.042 pM | EC50, fall of % tPA inhibition by PAI-1 (chromogenic neutralisation assay) (human PAI-1 [10]): 4030 pM | EC50, % PAI-1 neutralization, 2.8 nM cyno PAI-1 (chromogenic assay with human tPA); plateau about 100 % (cynomolgus PAI-1 [11]): 226 pM | koff (human PAI-1 [3]): ≤ 0.0001 s⁻¹ | Kd [12]: 69.6 pM | koff [12]: 0.000275 s⁻¹ | kon [12]: 3.98e+06 M⁻¹ s⁻¹ | Kd [13]: 40.4 pM | koff [13]: 0.000229 s⁻¹ | kon [13]: 5.68e+06 M⁻¹ s⁻¹ | Kd (human PAI-1 [6]): 3.76 pM | koff (human PAI-1 [6]): 1.49e-05 s⁻¹ | Kd (cynomolgus PAI-1 [14]): ≤ 0.1 pM | koff (cynomolgus PAI-1 [14]): ≤ 1e-06 s⁻¹ | Kd [15]: ≤ 1 pM | koff [15]: ≤ 1e-06 s⁻¹
B3: A44 (antibody, mouse IgG1, V domains shown)
VH: EMQLQESGPSLVKPSQTLSLTCSVTGDSMTNGYWNWIRKFPGNKLEYMGYITYSGSTYYNPSLKGRISITRNTSKNQYYLQLSSVTTEDTATYYCARWHYGSPYYFDYWGQGTTLTVSS
VL: DIKMTQSPSSMYASLGERVTITCKASQDINSYLSWLQQKPGKSPKTLIYRANRSVDGVPSRFSGSGSGQDYSLTISSLEYEDMGIYYCLQYDEFPPTFGGGTKLEIKR
notes: mouse IgG1/kappa; also called mA44; A44 parental
